Assays:
[1] = Pharmacokinetic measurement of serum level of 4D7; format: in vivo, mice; details: 12.5 mg/kg intraperitoneal injection; 48 hours post injection
Method: A. Illustration showing bone marrow NSG engraftment model with TPO-independent TF-1 TpoR CALR^del61 cells treated with 4D7 or IgG control twice weekly, starting 7 days after engraftment via intraperitoneal injection and final measurements taken from euthanized mice. B. Pharmacokinetic measurements of serum level of 4D7 in mice after intraperitoneal injection at 1, 24, 48, 72 and 110 hours since administration. C. Percentage of human CD33+myeloid cells measured in peripheral blood at 3 weeks post-tail vein engraftment (n=5 mice per treatment). D. Kaplan-Meier survival curve of bone marrow engraftment model showing improved survival of mice treated with 4D7 compared with IgG control commencing I week after tail vein injection (n=5 mice per treatment). […]
All procedures were approved by the South Australian Health and Medical Research Animal Ethics Committee (Protocol SAM21-018). […] Tail vein bleeds were taken at 3 weeks and analysed via flow cytometry to determine human leukaemia content in the peripheral blood. […] Mice were monitored daily and euthanized once clinical symptoms were observed. […] Additionally, bone marrow from both femurs, spine and spleens were analysed for leukemic content as detailed above. […] Tumour progression was assessed through caliper measurements every 2 days. […]

[2] = system: ruxolitinib-resistant TF-1 TpoR CALR^del61 cells; experiment: Cell growth in liquid culture, trypan blue exclusion; format: cell-based, human; details: 20 μg/mL, 96 hours
Method: (§1) A. Graph showing effect of ruxolitinib on megakaryocyte differentiation at 50 and 100 nM in healthy CD34+ cells (n=4). B. Effect of 4D7 on TPO-dependent megakaryocyte differentiation of healthy CD34+ cells cultured with 20 μg/mL 4D7 or IgG control (n=4). C. Total numbers of hematopoietic colonies plated in MethoCult from healthy cord blood after treatment with 4D7 or IgG. CFU-GM, colony forming unit-granulocyte macrophage: BFU-E, blast forming unit-erythroid: CFU-GEMM, colony forming unit granulocyte, erythroid, monocyte, megakaryocyte (n=3).D. CD41+megakaryocyte colonies from healthy CD34+ cells observed on collagen matrix after 4D7 treatment. Colonies were cultured in TPO, SCF. IL-9 and IL-3. E. Number of megakaryocyte colony forming units observed in MegaCult assay after treatment of healthy cord blood CD34+ cells with either IgG or 4D7 (n=3). F. Western blot showing signalling in ruxolitinib-resistant TF-1 TpoR CALR^del61 compared to ruxolitinib sensitive TF-1 TpoR CALR^del61 cells after treatment with 100 nM ruxolitinib for 16 hours or 30 minutes and blotted for phospho-STAT5, total STAT5, phospho-ERK, total ERK and actin as indicated. Ruxolitinib-sensitive cells were non-viable after 16 hours of treatment. […] Cells counted using Trypan Blue exclusion with replicate wells (n=3). […]

[3] = system: TF-1 TpoR CALR^del52 cells; experiment: Cell proliferation, trypan blue exclusion; format: cell-based, human; details: over 5 days at 2, 10 and 20 μg/mL
Method: (§2) In brief, cells were seeded at 5×10^4/mL in standard growth media, with any necessary cytokines, and the addition of 20 μg/mL IgG or 2, 10 or 20 μg/mL 4D7. Cells were seeded in triplicate and each well was counted in triplicate every 24 hours for 5 days using trypan blue exclusion.

[4] = system: TF-1 cells expressing TpoR alone (endogenous wild type CALR); experiment: Cell proliferation, trypan blue exclusion; format: cell-based, human; details: in presence of TPO; 2, 10 or 20 μg/mL
Method: as §2

[5] = system: ruxolitinib-resistant TF-1 TpoR CALR^del61 cells; experiment: Colony formation in MethoCult; format: cell-based, human; details: after 72 hours of treatment
Method: as §1

B1: 4D7: rat monoclonal IgG2a antibody against the mutant CALR neoepitope; VH SEQ ID NO: 5, VL SEQ ID NO: 7 (antibody, listed as Rattus rattus, V domains shown)
VH: QVQLQQSGAELAKPGSSVKISCKASGYTFTNYDMSWIKQRPGQALEWIGAINPGNGVTDYNEKFRGKATLTVDKSSSTAFMQLSSLTPEDTAVYHCAREYRDNYGYFDYWGQGVMVTVSS
VL: DIVLTQTPVSLSVTLGDQASISCRSSQSLEYSDGYTYLDWFLQKPGQSPQLLIYEVSSRFSGVPDRFIGRGSGTDFTLKISRVEPEDLGVYYCFQATHDPFTFGSGTKLEIK
With B1 the serum concentration [1] was “more than 100 μg/mL”, the “inhibitory activity on cell growth in liquid culture” value [2] was “strong inhibitory activity” and the TPO-independent cell growth [3] was “blockade of TPO-independent cell growth”. The inhibition of proliferation [4] was “no inhibition” and the “inhibitory activity on colony formation” value [5] was “strong inhibitory activity”.

From US20250236667A1, “ANTIBODIES TO MUTANT CALRETICULIN AND USES THEREOF” (CENTRAL ADELAIDE LOCAL HEALTH NETWORK INC, priority 2021, published 2025)
